{"source": "patent US20200392227A1", "about": "(LYVGEN BIOPHARMA, published 2020)", "binders": {"B1": {"name": "anti-CD137 IgG4 with Fc variant G4m17 (antibody)", "heavy": "EVQLVQSGAEVKKPGESLRISCKGSGYSFSTYWISWVRQMPGKGLEWMGKIYPGDSYTNYSPSFQGQVTISADKSISTAYLQWSSLKASDTAMYYCARGYGIFDYWGQGTLVTVSSASTKGPSVFPLAPCSRSTSESTAALGCLVKDYFPEPVTVSWNSGALTSGVHTFPAVLQSSGLYSLSSVVTVPSSSLGTKTYTCNVDHKPSNTKVDKRVESKYGPPCPPCPAPEFLSVFLFPPKPKDTLMISRTPEVTCVVVDVEQEDPEVQFNWYVDGVEVHNAKTKPREEQFNSTYRVVSVLTVLHQDWLNGKEYKCKVSNKGLPSSIEKTISKAKGQPREPQVYTLPPSQEEMTKNQVSLTCLVKGFYPSDIAVEWESNGQPENNYKTTPPVLDSDGSFFLYSRLTVDKSRWQEGNVFSCSVMHEALHNHYTQKSLSLSLGK", "light": "SYELTQPPSVSVSPGQTASITCSGDNIGDQYAHWYQQKPGQSPVLVIYQDKNRPSGIPERFSGSNSGNTATLTISGTQAMDEADYYCATYTGFGSLAVFGGGTKLTVLGQPKAAPSVTLFPPSSEELQANKATLVCLISDFYPGAVTVAWKADSSPVKAGVETTTPSKQSNNKYAASSYLSLTPEQWKSHRSYSCQVTHEGSTVEKTVAPTECS", "notes": "copies: 2 + 2"}, "B2": {"name": "anti-CD137 IgG4 with Fc variant G4m20 (antibody)", "heavy": "EVQLVQSGAEVKKPGESLRISCKGSGYSFSTYWISWVRQMPGKGLEWMGKIYPGDSYTNYSPSFQGQVTISADKSISTAYLQWSSLKASDTAMYYCARGYGIFDYWGQGTLVTVSSASTKGPSVFPLAPCSRSTSESTAALGCLVKDYFPEPVTVSWNSGALTSGVHTFPAVLQSSGLYSLSSVVTVPSSSLGTKTYTCNVDHKPSNTKVDKRVESKYGPPCPPCPAPEFLGSVFLFPPKPKDTLMISRTPEVTCVVVDVSQEDPEVQFNWYVDGVEVHNAKTKPREEQFNSTYRVVSVLTVLHQDWLNGKEYKCKVSNKGLPSSIEKTISKAKGQPREPQVYTLPPSQEEMTKNQVSLTCLVKGFYPSDIAVEWESNGQPENNYKTTPPVLDSDGSFFLYSRLTVDKSRWQEGNVFSCSVMHEALHNHYTQKSLSLSLGK", "light": "B1 light", "notes": "copies: 2 + 2"}}, "key": {"[1]": {"target": "T1, human FcγRIIC expressed on CHO cells (human, UniProt P31995 43-323)", "T1 construct": "whole, on cells", "T1 sequence (looked up)": "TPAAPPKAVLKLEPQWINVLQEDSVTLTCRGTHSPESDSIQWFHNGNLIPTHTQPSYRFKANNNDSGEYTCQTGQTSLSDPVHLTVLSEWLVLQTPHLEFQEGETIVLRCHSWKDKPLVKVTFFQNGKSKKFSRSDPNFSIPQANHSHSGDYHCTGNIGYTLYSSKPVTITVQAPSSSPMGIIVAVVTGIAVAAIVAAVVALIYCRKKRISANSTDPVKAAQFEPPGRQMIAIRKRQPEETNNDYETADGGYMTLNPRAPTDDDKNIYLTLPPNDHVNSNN", "assay": "FACS, CHO cells expressing FcγRIIC", "description": "(§1) For FACS analysis of the IgG mutants' binding to different FcγRs, FcγR overexpressing CHO cells were harvested using trypsin-EDTA and were suspended in cold staining buffer (3% BSA in PBS). Test IgG mutants, which were diluted in staining buffer, were added into the cells. The mixture was incubated 4° C. for 2 hours, and then washed twice with cold staining buffer and re-suspended in PE-labeled anti-human IgG followed by incubation at 4° C. for 2 hours. The mixture was washed twice with staining buffer and re-suspended in 2% PFA in PBS for FACS."}, "[2]": {"target": "T2, human FcγRI expressed on CHO cells (human, UniProt P12314 16-374)", "T2 construct": "whole, on cells", "T2 sequence (P12314 16-374)": "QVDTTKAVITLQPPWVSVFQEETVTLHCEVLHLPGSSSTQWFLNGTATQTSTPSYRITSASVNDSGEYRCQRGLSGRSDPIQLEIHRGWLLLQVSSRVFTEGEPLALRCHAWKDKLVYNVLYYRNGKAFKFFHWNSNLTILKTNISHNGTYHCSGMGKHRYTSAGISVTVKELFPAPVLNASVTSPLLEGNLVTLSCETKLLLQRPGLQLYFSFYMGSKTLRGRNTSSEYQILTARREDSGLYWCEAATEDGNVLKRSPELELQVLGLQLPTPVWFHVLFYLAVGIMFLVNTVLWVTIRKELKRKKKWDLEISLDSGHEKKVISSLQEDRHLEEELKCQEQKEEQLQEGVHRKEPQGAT", "assay": "FACS, CHO cells expressing FcγRI", "summary_of_the_method": "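Trypsin-harvested CHO cells overexpressing each FcγR were incubated 2 h at 4 °C with IgG mutants in 3% BSA/PBS. Bound IgG was detected with PE-labeled anti-human IgG (2 h, 4 °C), then cells were fixed in 2% PFA and analysed by flow cytometry.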"}, "[3]": {"target": "T3, human FcRIIA protein (MednaBio, E1033) (human, UniProt P12318 34-218, limits assumed)", "T3 construct": "Bought; also called FcγRIIA", "T3 sequence (looked up)": "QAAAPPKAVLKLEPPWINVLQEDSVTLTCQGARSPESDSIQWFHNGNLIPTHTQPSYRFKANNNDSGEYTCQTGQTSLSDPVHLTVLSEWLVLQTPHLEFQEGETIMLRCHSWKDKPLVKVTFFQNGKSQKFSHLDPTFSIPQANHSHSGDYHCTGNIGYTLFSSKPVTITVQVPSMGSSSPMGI", "assay": "BLI", "summary_of_the_method": "(§2)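 On an Octet Red96 System, anti-penta-HIS biosensors loaded with commercial human Fc receptor proteins were dipped into test IgG diluted 1:3 over 8 points from 300 nM. Fcγ receptor runs used pH 7.2 and FcRn runs used pH 6. Global fitting of these biolayer interferometry data gave the values for Kd, kon and koff, using a 1:1 binding model.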"}, "[4]": {"target": "T4, human FcRn protein (MednaBio, E1032) (human, UniProt P55899 24-297; P61769 21-119)", "T4 construct": "Bought; assays at pH 6", "T4 sequence (P55899 24-297 limits assumed, form in doubt, chain 1 of 2)": "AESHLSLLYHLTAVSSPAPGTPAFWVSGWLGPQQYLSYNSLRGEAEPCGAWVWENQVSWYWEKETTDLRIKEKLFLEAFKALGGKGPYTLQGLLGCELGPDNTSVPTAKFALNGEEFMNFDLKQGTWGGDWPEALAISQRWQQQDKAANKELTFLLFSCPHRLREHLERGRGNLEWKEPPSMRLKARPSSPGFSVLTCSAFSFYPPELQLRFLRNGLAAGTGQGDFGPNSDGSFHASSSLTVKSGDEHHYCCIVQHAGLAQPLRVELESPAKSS", "T4 sequence (P61769 21-119 limits assumed, form in doubt, chain 2 of 2)": "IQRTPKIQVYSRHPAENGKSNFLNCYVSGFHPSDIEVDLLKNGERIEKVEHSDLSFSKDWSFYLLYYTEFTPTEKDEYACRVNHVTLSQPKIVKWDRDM", "assay": "BLI", "summary_of_the_method": "as §2"}, "[5]": {"target": "T5, human FcRIIB/C protein (MednaBio, E1034) (human, UniProt P31994 43-217, limits assumed)", "T5 construct": "Bought as FcRIIB/C; also called FcγRIIB; CD32B", "T5 sequence (looked up)": "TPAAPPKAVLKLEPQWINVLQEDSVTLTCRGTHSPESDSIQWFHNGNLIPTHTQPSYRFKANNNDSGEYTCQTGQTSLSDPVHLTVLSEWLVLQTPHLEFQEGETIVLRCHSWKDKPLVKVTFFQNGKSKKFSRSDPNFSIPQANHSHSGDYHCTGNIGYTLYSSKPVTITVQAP", "assay": "BLI", "summary_of_the_method": "as §2"}, "[6]": {"target": "T1, human FcγRIIC expressed on CHO cells", "assay": "FACS, CHO cells expressing FcγRIIC", "remark": "listed apart in the source"}, "[7]": {"target": "T6, human FcγRIIA(H131) expressed on CHO cells (human, UniProt P12318 34-317)", "T6 construct": "whole, on cells", "T6 sequence (looked up)": "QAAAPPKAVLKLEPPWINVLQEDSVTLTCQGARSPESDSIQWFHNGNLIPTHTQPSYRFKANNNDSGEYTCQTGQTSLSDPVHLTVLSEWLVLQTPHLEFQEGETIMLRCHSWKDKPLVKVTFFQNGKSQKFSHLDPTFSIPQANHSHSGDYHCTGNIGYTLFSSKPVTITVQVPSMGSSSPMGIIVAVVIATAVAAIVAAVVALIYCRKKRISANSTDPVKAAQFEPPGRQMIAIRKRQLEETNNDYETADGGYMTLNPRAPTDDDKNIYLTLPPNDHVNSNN", "assay": "FACS, CHO cells expressing FcγRIIA(H131)", "description": "as §1"}, "[8]": {"target": "T3, human FcRIIA protein (MednaBio, E1033)", "assay": "BLI", "description": "(§3) These IgG mutants were tested for binding to a panel of human Fc receptors (FcRs), including FcRn, using the Octet Red96 System (ForteBio, Model #Red96). Human FcR proteins were purchased commercially (FcRn, MednaBio, E1032; FcRI, MednaBio, E1031; FcRIIA, MednaBio, E1033; FcRIIB/C, MednaBio, E1034; FcRIIIA-F158, MednaBio, E1036; FcRIIIA-V158, MednaBio, E1035; FcRIIIB, MednaBio, E1037). All Fey receptor assays were performed at pH 7.2; all FcRn assays were performed at pH 6. The Fey receptors were loaded onto anti-penta-HIS1K (ForteBio, Cat #18-5122) biosensors at a concentration of 20 μg/mL. The loaded biosensors was then be dipped into an 8-point 1:3 dilution series of the test IgG molecules (including controls and the mutants described herein) in PBS with 0.1% BSA, 0.02% Tween-20 (pH 7.2) at a starting concentration of 300 nM. Kinetic analysis was performed using a 1:1 binding model and global fitting.", "remark": "listed apart in the source"}, "[9]": {"target": "T7, human FcRIIIB protein (MednaBio, E1037) (human, UniProt O75015 17-200)", "T7 construct": "Bought; also called FcγRIIIB; FcgRIIIB", "T7 sequence (O75015 17-200 limits assumed)": "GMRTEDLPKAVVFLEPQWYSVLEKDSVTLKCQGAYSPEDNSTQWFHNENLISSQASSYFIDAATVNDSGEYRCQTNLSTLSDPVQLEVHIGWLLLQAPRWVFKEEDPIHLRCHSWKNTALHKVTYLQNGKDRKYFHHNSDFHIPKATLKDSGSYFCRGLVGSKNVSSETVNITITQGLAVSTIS", "assay": "BLI", "description": "as §3"}, "[10]": {"target": "T8, human FcRIIIA-F158 protein (MednaBio, E1036) (human, UniProt P08637 17-208)", "T8 construct": "Bought; also called FcγRIIIA(F)", "T8 sequence (P08637 17-208 limits assumed)": "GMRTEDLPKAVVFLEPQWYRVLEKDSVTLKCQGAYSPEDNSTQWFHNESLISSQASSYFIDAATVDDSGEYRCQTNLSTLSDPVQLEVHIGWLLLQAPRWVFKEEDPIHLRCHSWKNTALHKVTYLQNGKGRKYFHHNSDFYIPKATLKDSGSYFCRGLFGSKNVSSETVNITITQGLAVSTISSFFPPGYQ", "assay": "BLI", "description": "as §3"}, "[11]": {"target": "T9, human FcRI protein (MednaBio, E1031) (human, UniProt P12314 16-288, limits assumed)", "T9 construct": "Bought; loaded on anti-penta-HIS biosensors; also called FcγRI", "T9 sequence (P12314 16-288 limits assumed)": "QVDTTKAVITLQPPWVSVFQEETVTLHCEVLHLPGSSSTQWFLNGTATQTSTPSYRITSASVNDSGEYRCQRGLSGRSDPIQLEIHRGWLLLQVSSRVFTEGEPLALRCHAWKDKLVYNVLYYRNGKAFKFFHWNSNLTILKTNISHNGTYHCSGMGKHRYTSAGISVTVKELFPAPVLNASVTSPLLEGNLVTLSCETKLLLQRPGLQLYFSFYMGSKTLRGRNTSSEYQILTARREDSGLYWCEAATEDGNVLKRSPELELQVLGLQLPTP", "assay": "BLI", "description": "as §3"}, "[12]": {"target": "T4, human FcRn protein (MednaBio, E1032)", "assay": "BLI", "description": "as §3", "remark": "listed apart in the source"}, "[13]": {"target": "T10, human FcRIIIA-V158 protein (MednaBio, E1035) (human, UniProt P08637 17-208)", "T10 construct": "Bought; also called FcγRIIIA(V); FcgRIIIA(V)", "T10 sequence (P08637 17-208 F176V)": "as the sequence (P08637 17-208 limits assumed) above, with F160V counted along it", "assay": "BLI", "description": "as §3"}, "[14]": {"target": "T5, human FcRIIB/C protein (MednaBio, E1034)", "assay": "BLI", "description": "as §3", "remark": "listed apart in the source"}}, "note": "Read-outs that look alike come from different tables or passages of the source.", "data": [{"binder": "B1", "values": [{"measurement": "binding result", "setting": "[1]", "result": "binds"}, {"measurement": "binding result", "setting": "[2]", "result": "binds"}, {"measurement": "Kd", "setting": "[3]", "result": 600, "unit": "nM"}, {"measurement": "koff", "setting": "[3]", "result": 0.024, "unit": "s⁻¹"}, {"measurement": "kon", "setting": "[3]", "result": 40000, "unit": "M⁻¹ s⁻¹"}, {"measurement": "Kd", "setting": "[4]", "result": 52, "unit": "nM"}, {"measurement": "koff", "setting": "[4]", "result": 0.011, "unit": "s⁻¹"}, {"measurement": "kon", "setting": "[4]", "result": 210000, "unit": "M⁻¹ s⁻¹"}, {"measurement": "Kd", "setting": "[5]", "result": 280, "unit": "nM"}, {"measurement": "koff", "setting": "[5]", "result": 0.019, "unit": "s⁻¹"}, {"measurement": "kon", "setting": "[5]", "result": 68000, "unit": "M⁻¹ s⁻¹"}]}, {"binder": "B2", "values": [{"measurement": "binding result", "setting": "[6]", "result": "no binding (tested: 10 ug/ml)"}, {"measurement": "binding result", "setting": "[7]", "result": "no binding (tested: 10 ug/ml)"}, {"measurement": "binding result", "setting": "[8]", "result": "no binding (tested: 300 nM)"}, {"measurement": "binding result", "setting": "[9]", "result": "no binding (tested: 300 nM)"}, {"measurement": "binding result", "setting": "[10]", "result": "no binding (tested: 300 nM)"}, {"measurement": "binding result", "setting": "[11]", "result": "no binding (tested: 300 nM)"}, {"measurement": "Kd", "setting": "[12]", "result": 19, "unit": "nM"}, {"measurement": "koff", "setting": "[12]", "result": 0.0098, "unit": "s⁻¹"}, {"measurement": "kon", "setting": "[12]", "result": 510000, "unit": "M⁻¹ s⁻¹"}, {"measurement": "binding result", "setting": "[13]", "result": "no binding (tested: 300 nM)"}, {"measurement": "binding result", "setting": "[14]", "result": "no binding (tested: 300 nM)"}]}]}
